Patent US20240279333A1 (SYSTIMMUNE, published 2024)

B1: SI-39E29 (806 x 284A10 x PL221 x 420H5) (antibody)
heavy: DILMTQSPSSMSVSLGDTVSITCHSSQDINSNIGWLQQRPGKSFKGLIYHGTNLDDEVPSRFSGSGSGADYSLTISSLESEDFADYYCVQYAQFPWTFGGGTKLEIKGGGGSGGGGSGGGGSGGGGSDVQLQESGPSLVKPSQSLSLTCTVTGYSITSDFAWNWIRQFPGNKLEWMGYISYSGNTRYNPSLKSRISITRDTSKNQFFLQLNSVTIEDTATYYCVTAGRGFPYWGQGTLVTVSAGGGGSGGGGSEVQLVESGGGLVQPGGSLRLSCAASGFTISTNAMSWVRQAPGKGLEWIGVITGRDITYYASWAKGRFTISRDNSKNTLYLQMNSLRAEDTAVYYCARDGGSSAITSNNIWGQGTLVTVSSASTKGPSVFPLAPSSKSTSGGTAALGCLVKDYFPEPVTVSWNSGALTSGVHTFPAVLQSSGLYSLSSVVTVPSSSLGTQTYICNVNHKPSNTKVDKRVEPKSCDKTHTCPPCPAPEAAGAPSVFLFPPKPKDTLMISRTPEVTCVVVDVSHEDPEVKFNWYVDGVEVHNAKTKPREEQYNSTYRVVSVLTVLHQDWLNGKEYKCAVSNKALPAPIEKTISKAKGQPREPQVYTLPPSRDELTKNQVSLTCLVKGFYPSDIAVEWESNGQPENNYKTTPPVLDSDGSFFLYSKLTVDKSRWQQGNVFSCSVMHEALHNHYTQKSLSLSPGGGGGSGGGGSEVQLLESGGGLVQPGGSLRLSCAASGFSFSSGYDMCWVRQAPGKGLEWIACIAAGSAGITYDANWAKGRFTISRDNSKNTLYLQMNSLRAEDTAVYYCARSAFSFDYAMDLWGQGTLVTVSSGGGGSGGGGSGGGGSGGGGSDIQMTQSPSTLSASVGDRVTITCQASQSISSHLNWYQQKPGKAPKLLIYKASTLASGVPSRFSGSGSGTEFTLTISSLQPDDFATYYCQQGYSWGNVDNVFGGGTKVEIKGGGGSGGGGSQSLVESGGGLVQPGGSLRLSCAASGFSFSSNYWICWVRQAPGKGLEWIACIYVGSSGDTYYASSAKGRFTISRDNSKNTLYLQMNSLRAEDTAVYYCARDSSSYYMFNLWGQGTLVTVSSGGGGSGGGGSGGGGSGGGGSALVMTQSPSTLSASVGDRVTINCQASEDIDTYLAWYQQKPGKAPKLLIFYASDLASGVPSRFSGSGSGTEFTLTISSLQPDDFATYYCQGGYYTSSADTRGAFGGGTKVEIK
light: DVVMTQSPSTLSASVGDRVTINCQASESISSWLAWYQQKPGKAPKLLIYEASKLASGVPSRFSGSGSGTEFTLTISSLQPDDFATYYCQGYFYFISRTYVNSFGGGTKVEIKRTVAAPSVFIFPPSDEQLKSGTASVVCLLNNFYPREAKVQWKVDNALQSGNSQESVTEQDSKDSTYSLSSTLTLSKADYEKHKVYACEVTHQGLSSPVTKSFNRGEC
notes: Tetra-specific antibody, symmetric dimer
B2: SI-39E23 (PL230 x 806 x 420H5 x 284A10) (antibody)
heavy: not shown
light: DILMTQSPSSMSVSLGDTVSITCHSSQDINSNIGWLQQRPGKSFKGLIYHGTNLDDEVPSRFSGSGSGADYSLTISSLESEDFADYYCVQYAQFPWTFGGGTKLEIKRTVAAPSVFIFPPSDEQLKSGTASVVCLLNNFYPREAKVQWKVDNALQSGNSQESVTEQDSKDSTYSLSSTLTLSKADYEKHKVYACEVTHQGLSSPVTKSFNRGEC
notes: as for B1
B3: SI-39E18 (284A10 x 806 x PL221 x 420H5) (antibody)
heavy: not shown
light: B2 light
notes: as for B1
B4: SI-39E4 (PL230 x 806 x 284A10 x 420H5) (antibody)
heavy: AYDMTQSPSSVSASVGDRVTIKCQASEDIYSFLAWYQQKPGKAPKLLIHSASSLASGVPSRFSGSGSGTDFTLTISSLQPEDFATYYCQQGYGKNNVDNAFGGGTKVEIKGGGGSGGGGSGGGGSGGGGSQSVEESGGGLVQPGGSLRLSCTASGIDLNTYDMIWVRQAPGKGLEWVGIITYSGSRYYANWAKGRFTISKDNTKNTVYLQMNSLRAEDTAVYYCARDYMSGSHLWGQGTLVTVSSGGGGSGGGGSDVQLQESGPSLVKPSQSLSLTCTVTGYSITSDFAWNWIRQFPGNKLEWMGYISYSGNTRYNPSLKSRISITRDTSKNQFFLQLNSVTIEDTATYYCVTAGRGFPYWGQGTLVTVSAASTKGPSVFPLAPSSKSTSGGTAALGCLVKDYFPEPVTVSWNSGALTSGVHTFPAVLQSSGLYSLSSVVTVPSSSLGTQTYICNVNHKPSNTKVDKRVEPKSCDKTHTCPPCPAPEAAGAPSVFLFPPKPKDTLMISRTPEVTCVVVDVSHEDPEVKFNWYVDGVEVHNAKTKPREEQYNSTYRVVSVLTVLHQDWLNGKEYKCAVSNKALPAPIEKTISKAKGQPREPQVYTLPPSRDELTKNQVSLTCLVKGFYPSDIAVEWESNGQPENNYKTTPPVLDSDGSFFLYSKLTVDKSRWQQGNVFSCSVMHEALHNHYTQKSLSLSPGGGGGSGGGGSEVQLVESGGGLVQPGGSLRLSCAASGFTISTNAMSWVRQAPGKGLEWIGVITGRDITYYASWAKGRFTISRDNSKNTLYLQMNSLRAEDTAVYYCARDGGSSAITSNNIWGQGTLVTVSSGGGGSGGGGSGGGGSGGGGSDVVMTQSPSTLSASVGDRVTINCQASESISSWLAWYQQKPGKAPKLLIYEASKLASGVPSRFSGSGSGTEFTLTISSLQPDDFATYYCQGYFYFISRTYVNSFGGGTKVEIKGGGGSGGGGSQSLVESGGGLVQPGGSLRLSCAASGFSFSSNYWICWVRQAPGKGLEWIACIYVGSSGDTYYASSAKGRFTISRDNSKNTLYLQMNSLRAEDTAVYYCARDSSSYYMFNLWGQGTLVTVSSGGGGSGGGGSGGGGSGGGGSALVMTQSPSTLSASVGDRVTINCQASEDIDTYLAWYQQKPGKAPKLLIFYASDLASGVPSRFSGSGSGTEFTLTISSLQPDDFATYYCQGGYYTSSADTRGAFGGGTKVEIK
light: B2 light
notes: Tetra-specific antibody, symmetric dimer; also called SI-39E04; 39 E04
B5: SI-35E18 (460C3-L1H1-scFv x PL230C6-Fab x 323H7-H4L1-scFv x 284A10-H1L1-scFv) (antibody, human IgG1, kappa)
heavy: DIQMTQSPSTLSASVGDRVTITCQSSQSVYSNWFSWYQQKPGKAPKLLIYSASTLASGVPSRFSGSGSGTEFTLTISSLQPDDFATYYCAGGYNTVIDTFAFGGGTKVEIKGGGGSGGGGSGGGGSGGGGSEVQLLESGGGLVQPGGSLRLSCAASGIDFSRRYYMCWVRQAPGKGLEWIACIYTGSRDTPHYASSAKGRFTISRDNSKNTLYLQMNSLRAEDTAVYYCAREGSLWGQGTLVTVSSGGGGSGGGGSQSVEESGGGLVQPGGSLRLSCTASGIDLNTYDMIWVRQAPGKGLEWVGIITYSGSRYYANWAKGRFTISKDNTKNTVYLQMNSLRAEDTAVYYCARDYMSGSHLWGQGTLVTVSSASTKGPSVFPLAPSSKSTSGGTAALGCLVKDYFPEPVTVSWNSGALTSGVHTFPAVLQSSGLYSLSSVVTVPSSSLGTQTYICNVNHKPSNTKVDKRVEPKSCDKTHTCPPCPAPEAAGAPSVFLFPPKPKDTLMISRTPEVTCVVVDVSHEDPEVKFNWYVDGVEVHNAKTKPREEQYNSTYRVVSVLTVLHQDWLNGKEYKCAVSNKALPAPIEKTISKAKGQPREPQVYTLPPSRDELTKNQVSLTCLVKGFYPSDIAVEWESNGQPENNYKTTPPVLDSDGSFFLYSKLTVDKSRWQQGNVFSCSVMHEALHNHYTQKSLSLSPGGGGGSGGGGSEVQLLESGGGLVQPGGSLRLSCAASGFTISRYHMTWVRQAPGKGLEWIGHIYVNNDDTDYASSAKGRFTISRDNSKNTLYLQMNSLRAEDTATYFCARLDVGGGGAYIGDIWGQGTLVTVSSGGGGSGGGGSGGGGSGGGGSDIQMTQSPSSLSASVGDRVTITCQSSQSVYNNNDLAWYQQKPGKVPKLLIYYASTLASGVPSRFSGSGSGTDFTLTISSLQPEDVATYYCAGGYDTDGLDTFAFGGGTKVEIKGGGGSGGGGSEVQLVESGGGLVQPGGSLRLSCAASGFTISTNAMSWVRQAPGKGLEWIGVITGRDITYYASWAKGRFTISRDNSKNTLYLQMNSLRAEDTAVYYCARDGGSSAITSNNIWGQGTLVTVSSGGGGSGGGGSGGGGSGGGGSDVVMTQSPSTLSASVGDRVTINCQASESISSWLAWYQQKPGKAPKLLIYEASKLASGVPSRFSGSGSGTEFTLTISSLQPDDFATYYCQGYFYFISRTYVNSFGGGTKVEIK
light: AYDMTQSPSSVSASVGDRVTIKCQASEDIYSFLAWYQQKPGKAPKLLIHSASSLASGVPSRFSGSGSGTDFTLTISSLQPEDFATYYCQQGYGKNNVDNAFGGGTKVEIKRTVAAPSVFIFPPSDEQLKSGTASVVCLLNNFYPREAKVQWKVDNALQSGNSQESVTEQDSKDSTYSLSSTLTLSKADYEKHKVYACEVTHQGLSSPVTKSFNRGEC
notes: as for B1
B6: SI-35E25 (420H5 x PL230C6 x 330F11 x 284A10) (antibody, human IgG1, kappa)
heavy: not shown
light: B5 light
notes: Tetra-specific antibody, symmetric dimer; also called '25' in 'SI-3524, 25, and 26'
B7: SI-35E26 (466F6 x PL230C6 x 330F11 x 284A10) (antibody, human IgG1, kappa)
heavy: not shown
light: B5 light
notes: Tetra-specific antibody, symmetric dimer; also called '26' in 'SI-3524, 25, and 26'
B8: SI-39E10 (420H5 x PL230 x 806 x 284A10) (antibody, human IgG1, kappa)
heavy: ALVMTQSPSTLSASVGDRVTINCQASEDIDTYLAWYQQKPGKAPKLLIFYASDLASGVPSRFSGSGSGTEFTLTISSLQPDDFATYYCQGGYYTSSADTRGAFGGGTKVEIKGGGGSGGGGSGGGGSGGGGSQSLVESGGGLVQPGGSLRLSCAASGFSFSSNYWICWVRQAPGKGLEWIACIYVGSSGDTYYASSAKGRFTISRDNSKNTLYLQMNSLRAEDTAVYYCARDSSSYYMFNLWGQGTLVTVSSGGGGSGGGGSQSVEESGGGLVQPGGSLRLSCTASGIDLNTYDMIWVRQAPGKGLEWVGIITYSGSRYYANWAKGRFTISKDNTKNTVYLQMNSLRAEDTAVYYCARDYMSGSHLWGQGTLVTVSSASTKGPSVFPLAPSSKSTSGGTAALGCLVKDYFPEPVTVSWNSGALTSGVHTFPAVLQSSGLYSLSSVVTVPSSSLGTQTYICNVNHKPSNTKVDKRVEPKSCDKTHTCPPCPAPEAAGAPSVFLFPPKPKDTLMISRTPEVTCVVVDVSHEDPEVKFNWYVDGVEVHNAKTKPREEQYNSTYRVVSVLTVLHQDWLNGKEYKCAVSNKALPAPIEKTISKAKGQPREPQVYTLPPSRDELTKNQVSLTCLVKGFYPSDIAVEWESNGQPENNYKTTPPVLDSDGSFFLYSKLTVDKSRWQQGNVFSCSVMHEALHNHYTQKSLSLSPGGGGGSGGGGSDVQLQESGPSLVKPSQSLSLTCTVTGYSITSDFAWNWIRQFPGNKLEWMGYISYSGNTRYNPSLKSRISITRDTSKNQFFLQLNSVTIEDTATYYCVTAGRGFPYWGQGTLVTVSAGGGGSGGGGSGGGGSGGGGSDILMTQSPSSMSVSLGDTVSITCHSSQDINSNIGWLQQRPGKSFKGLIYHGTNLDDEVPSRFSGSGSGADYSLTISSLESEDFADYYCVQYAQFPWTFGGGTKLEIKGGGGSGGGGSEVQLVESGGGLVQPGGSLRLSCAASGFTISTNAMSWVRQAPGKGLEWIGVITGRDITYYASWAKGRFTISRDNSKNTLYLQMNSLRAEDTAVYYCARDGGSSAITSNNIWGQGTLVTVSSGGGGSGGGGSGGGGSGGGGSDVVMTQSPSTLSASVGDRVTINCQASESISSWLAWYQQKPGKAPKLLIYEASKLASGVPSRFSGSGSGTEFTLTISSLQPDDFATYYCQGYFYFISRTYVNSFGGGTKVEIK
light: B5 light
notes: as for B1
B9: SI-35E24 (460C3 x PL230C6 x 330F11 x 284A10) (antibody, human IgG1, kappa)
heavy: not shown
light: B5 light
notes: Tetra-specific antibody, symmetric dimer; also called SI-3524
B10: SI-39E13 (420H5 x PL230 x 284A10 x 806) (antibody, human IgG1, kappa)
heavy: not shown
light: B5 light
notes: as for B1

Key:
[1] = molecular target: T1, CD3 e/d antigen (immobilized on the sensor) (UniProt P07766 23-126; P04234 22-105); assay: Octet RED96, antigen immobilized
T1 construct: 'e/d' read as epsilon/delta; construct not described

[2] = molecular target: PD-L1 protein antigen (immobilized on the sensor) (UniProt Q9NZQ7 19-238, limits assumed); assay: Octet RED96, antigen immobilized
[3] = molecular target: 4-1BB protein antigen (immobilized on the sensor) (UniProt Q07011 24-186, limits assumed); assay: Octet RED96, antigen immobilized
[4] = molecular target: T2, human PD-L1 on transfected CHO cells (human, UniProt Q9NZQ7 19-290); assay: FACS on human PD-L1 transfected CHO cells, PE goat anti-human IgG Fc secondary; y axis without label
T2 construct: whole, on cells; also called PD-L1 expressing CHO cells; human PD-L1 transfected CHO cells

[5] = molecular target: T3, human 4-1BB on transfected CHO cells (human, UniProt Q07011 24-255); assay: FACS on human 4-1BB transfected CHO cells, PE goat anti-human IgG Fc secondary; y axis without label
T3 construct: whole, on cells; also called 41BB expressing CHO cells; human 41BB transfected CHO cells

[6] = molecular target: T4, full length human ROR1 stably expressed on CHO cells (human, UniProt Q01973 30-937); assay: FACS on CHO cells stably expressing full length human ROR1, PE goat anti-human IgG Fc secondary; y axis without label
T4 construct: whole, on cells; also called ROR1-CHO cells; human ROR1 transfected CHO cells

Row | Binder | Kd [1] | Response [1] | koff [1] | kon [1] | Kd [2] | Response [2] | koff [2] | kon [2] | Kd [3] | Response [3] | koff [3] | kon [3] | binding result [4] | binding result [5] | binding result [6]
1 | B1 | 0.475 nM | 1.85 | 7.86e-05 s⁻¹ | 166000 M⁻¹ s⁻¹ | 0.283 nM | 1.72 | 0.000106 s⁻¹ | 376000 M⁻¹ s⁻¹ | – | – | – | – | – | – | –
2 | B2 | 0.207 nM | 2.65 | 2.54e-05 s⁻¹ | 123000 M⁻¹ s⁻¹ | 0.0402 nM | 1.9 | 1.94e-05 s⁻¹ | 483000 M⁻¹ s⁻¹ | 0.696 nM | 2.02 | 0.000141 s⁻¹ | 203000 M⁻¹ s⁻¹ | – | – | –
3 | B3 | 0.632 nM | 1.76 | 0.00011 s⁻¹ | 174000 M⁻¹ s⁻¹ | 0.168 nM | 1.83 | 6.37e-05 s⁻¹ | 379000 M⁻¹ s⁻¹ | 0.393 nM | 2.02 | 9.24e-05 s⁻¹ | 235000 M⁻¹ s⁻¹ | – | – | –
4 | B4 | < 0.001 nM | 1.97 | < 1e-07 s⁻¹ | 86100 M⁻¹ s⁻¹ | 0.0723 nM | 2.15 | 2.41e-05 s⁻¹ | 333000 M⁻¹ s⁻¹ | 0.354 nM | 2.42 | 5.91e-05 s⁻¹ | 167000 M⁻¹ s⁻¹ | – | – | –
5 | B5 | – | – | – | – | – | – | – | – | – | – | – | – | binds | binds | binds
6 | B6 | – | – | – | – | – | – | – | – | – | – | – | – | – | – | no binding (tested: 10 nM)
7 | B7 | – | – | – | – | – | – | – | – | – | – | – | – | – | – | no binding (tested: 10 nM)
8 | B8 | < 0.001 nM | 2.24 | < 1e-07 s⁻¹ | 110000 M⁻¹ s⁻¹ | 0.0685 nM | 1.94 | 2.61e-05 s⁻¹ | 381000 M⁻¹ s⁻¹ | 0.0356 nM | 2.63 | 7.43e-06 s⁻¹ | 209000 M⁻¹ s⁻¹ | – | – | –
9 | B9 | – | – | – | – | – | – | – | – | – | – | – | – | – | – | no binding (tested: 10 nM)
10 | B10 | < 0.001 nM | 1.8 | < 1e-07 s⁻¹ | 104000 M⁻¹ s⁻¹ | 0.0801 nM | 1.92 | 3.32e-05 s⁻¹ | 415000 M⁻¹ s⁻¹ | 0.117 nM | 2.47 | 2.65e-05 s⁻¹ | 227000 M⁻¹ s⁻¹ | – | – | –
